Data published in the supplement of paper PMC12783771.
± gives the standard deviation of the averaged measurements.

B1: library; numbered along this chain (parent)
chain: MNIQIGELAKRTACPVVTIRFYEQEGLLPPPGRSRGNFRLYGEEHVERLQFIRHCRSLDMPLSDVRTLLSYRKRPDQDCGEVNMLLDEHIRQVESRIGALLELKHHLVELREACSGARPAQSCGILQGLSDCVCDTRGTTAHPSD

Legend:
[1] = variants of: B1; test: sfGFP reporter fluorescence (15 h) (µM FITC); higher = higher leak; conditions: library round: Round 0; ligand: none
Summary of the method: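 PCR-made linear PbrR templates (Echo-normalized to 5 nM) were expressed in BL21 Star (DE3) extract (PANOx-SP) with pPbrR-sfGFP reporter plasmid and 30 μg/mL GamS. Reactions were 1 μL, Echo-assembled, with 1 µM lead chloride, 30 µM zinc acetate or no metal, incubated 15 hr at 30 °C. Endpoint sfGFP fluorescence (485/528 nm, Synergy Neo2) was converted to µM FITC via standard curves in 50 mM sodium borate pH 8.5. Up to three biological replicates.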

[2] = variants of: B1; test: sfGFP reporter fluorescence (15 h) (µM FITC); higher = stronger transcriptional activation; conditions: library round: Round 0
Protocol: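 Cell-free (BL21 Star DE3 extract, PANOx-SP) biosensing: 1 µL Echo-assembled reactions with linear PbrR variant templates (5 nM) and pPbrR-sfGFP reporter, with 1 µM Pb (lead chloride), 30 µM Zn (zinc acetate) or no ligand; endpoint sfGFP fluorescence after 15 h at 30 °C, calibrated as µM FITC. Round 0 library (alanine scan, site saturation, combinatorial) of PbrR from Cupriavidus metallidurans; 2 biological replicates.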

Row | Variant | sfGFP reporter fluorescence [1] | sfGFP reporter fluorescence ([2]; ligand: 1 µM Pb) | sfGFP reporter fluorescence ([2]; ligand: 30 µM Zn)
1 | MNCQIGELAKRTACPVVTIRFYEQEGLLPPPGRSRGNFRLYGEEHVERLQFIRHCRSLDMPLSDVRTLLSYRKRPDQDCGEVNMLLDEHIRQVESRIGALLELKHHLVELREACSGARPAQSCGILQGLSDCVCDTRGTTAHPSD [I3C] | 0.0586 | 0.0737 ± 0.0052 | 0.774 ± 0.011
2 | MNIQIGELAKRTACPVVTIRFYEQEGLLPPPGRSRGNFRLYGEEHVERLQFIRHCRSLDLNLSKVRTLLSYRKRPDQDCGEVNMLLDEHIRQVESRIGALLELKHHLVELREACSGARPAQSCGILQMLSDCVCDTRGTTAHPSD [M60L P61N D64K G128M] | 1.99 ± 0.056 | 3.91 ± 0.25 | 4.405 ± 0.006
3 | MNIQIGELAKRTACPVVTIRFYEQEGLLPPPGRSRGNFRLYGEEHVERLQFIRHCRSLDMPLSDVRTLLSYRKRPDQDCGEVNMLLDEHIRQVESRIGALLELKHHLVELREACSGARPAQSCGILQGLSICVCDTRGTTAHPSD [D131I] | 0.0607 ± 0.0029 | 0.0797 ± 0.0049 | 0.832 ± 0.073
4 | MNIQIGELAKRTACPVVTIRFYEQEGLLPPPGRSRGNFRLYGEEHVERLQFIRHCRSLDMPLSDVRTLLSYRKRPDQDCGEVNMLLDEHIRQVESRIGALLELKHHLVELREACSGARPAQSCGILQGTSDCVCDTRGTTAHPSD [L129T] | 0.05827 ± 0.00052 | 0.0581 ± 0.00078 | 0.055 ± 0.0021
5 | MNIQIGELAKRTACPVVTIRFYEQEGLLPPPGRSRKNFRLYGEEHVERLQFIRHCRSLDMPLSDVRTLLSYRKRPDQDCGEVNMLLDEHIRQVESRIGALLELKHHLVELREACSGARPAQSCGILQGLSDCVCDTRGTTAHPSD [G36K] | 0.06304 ± 0.00052 | 0.09218 ± 0.00026 | 1.18 ± 0.099
6 | MNIQIGELAKRTACPVVTIRFYEQEGLLPPPGRSRGNFRLYGEEHVERLQFIRHCRSLDMPLSDVRTLLSYAKRPDQDCGEVNMLLDEHIRQVESRIGALLELKHHLVELREACSGARPAQSCGILQGLSDCVCDTRGTTAHPSD [R72A] | 0.06175 ± 0.00026 | 0.0687 ± 0.008 | 0.3731 ± 0.0026
7 | MNIQIGELAKRTACPVVTIRFYEQEGLLPPPGRSRGNFRLYGEEHVERLQFIRHCRSLDLPLSDVRTLLSYRKRPDQDCGEVNMLLDEHIRQVESRIGALLELKHHCVELREACSGARPAQSCGILQGLSDCVCDTRGTTAHPSD [M60L L107C] | 1.01 ± 0.029 | 1.43 ± 0.057 | 3.93 ± 0.055
8 | MNIQIGELAKRTACPNVTIRFYEQEGLLPPPGRSRGNFRLYGEEHVERLQFIRHCRSLDMPLSDVRTLLSYRKRPDQDCGEVNMLLDEHIRQVESRIGALLELKHHLVELREACSGARPAQSCGILQGLSDCVCDTRGTTAHPSD [V16N] | 0.0643 ± 0.0013 | 0.08686 ± 0.00052 | 0.487 ± 0.011
9 | MNIQIAELAKRTACPVVTIRFYEQEGLLPPPGRSRGNFRLYGEEHVERLQFIRHCRSLDMPLSDVRTLLSYRKRPDQDCGEVNMLLDEHIRQVESRIGALLELKHHLVELREACSGARPAQSCGILQGLSDCVCDTRGTTAHPSD [G6A] | 0.0504 ± 0.0018 | 0.0491 ± 0.00052 | 0.09016 ± 0.00052
10 | MNIQIGELAKRTACPVVTIRFYEQEGLLPPPGRSRGNFRLYGEEHVERLQFIRHCRSLDMPLSDVRTLLSYRKRPDQDCGEVNMLLDEHIRQVESRIGALLELKHHLVELREACSGARPAQSCGIDQGLSDCVCDTRGTTAHPSD [L126D] | 0.0597 ± 0.0021 | 0.0581 ± 0.00078 | 0.0544 ± 0.0029
11 | MNIQIGELAKRTACPVVTIRFYEQEGLLPPPGRSRGNFRLYGEEHVERLQFIRHCRSLDMPLSDVRTLLSYRKRPDQDCGEVNMLLDEHHRQVESRIGALLELKHHLVELREACSGARPAQSCGILQGLSDCVCDTRGTTAHPSD [I90H] | 0.0619 ± 0.0036 | 0.0898 ± 0.0021 | 0.755 ± 0.0078
12 | MNIQIGELAKRTACPVVTIRFYEQEGLLPPPGRSRGNFRLYGEEHVERLQFIRHCRSLDMPLSDVRTLLAYRKRPDQDCGEVNMLLDEHIRQVESRIGALLELKHHLVELREACSGARPAQSCGILQGLSDCVCDTRGTTAHPSD [S70A] | 0.0678 ± 0.0052 | 0.072 ± 0.0054 | 0.281 ± 0.061
13 | MNIQIGELAKRTACPVVTIRFYEQEGLLPPPGRSRGNFRLYGEEHVERLQFIRHCRSLDMPLSDVRTLLSYRKRPDQDCGEKNMLLDEHIRQVESRIGALLELKHHLVELREACSGARPAQSCGILQGLSDCVCDTRGTTAHPSD [V82K] | 0.0601 ± 0.0021 | 0.0566 ± 0.0039 | 0.0563 ± 0.0039
14 | MNIQIGELAKRTACPVVTIRFYEQEGLLPPPGRSRGNFRLYGEEHVERLQFIRHCRSLDMPLSDVATLLSYRKRPDQDCGEVNMLLDEHIRQVESRIGALLELKHHLVELREACSGARPAQSCGILQGLSDCVCDTRGTTAHPSD [R66A] | 0.0627 ± 0.0015 | 0.0751 ± 0.0047 | 0.616 ± 0.13
